Measured values: patent US7405061

Target: antigen PIPA (human)
Experiment: cell-based or functional assay

decrease in cell proliferation of OV90 cells (MTT) with PIP at 10 ug/ml and MAb-ZAP saporin-linked secondary antibody: 50 percent
B1: monoclonal antibody PIP (antibody, V domains shown)
V domain 1: DVQLQESGPDLVKPSQSVSLTCTVTGYSITSGYGWHWIRQFPGNKLEWMGCIHYSGSTNYNPSLKSRISVTRDTSKNQFFLQLNSVTTEDTATYYCARREYGNYAMDYWGQGTSVTVSS
V domain 2: DVQLQESGPDLVKPSQSVSLTCTVTGYSITSGYGWHWIRQFPGNKLEWMGCIHYSGSTNYNPSLKSRISVTRDTSKNQFFLQLNSVTTEDTATYYCARREYGNYAMDYWGQGTSVTVSS
